Source: PMC13017536 (Nature, 2026)

Target: T1, His-tagged LetA (N-terminal 6×His2xQH-TEV-tagged LetA) (E. coli, UniProt P0AD03 1-427)
T1 sequence (looked up): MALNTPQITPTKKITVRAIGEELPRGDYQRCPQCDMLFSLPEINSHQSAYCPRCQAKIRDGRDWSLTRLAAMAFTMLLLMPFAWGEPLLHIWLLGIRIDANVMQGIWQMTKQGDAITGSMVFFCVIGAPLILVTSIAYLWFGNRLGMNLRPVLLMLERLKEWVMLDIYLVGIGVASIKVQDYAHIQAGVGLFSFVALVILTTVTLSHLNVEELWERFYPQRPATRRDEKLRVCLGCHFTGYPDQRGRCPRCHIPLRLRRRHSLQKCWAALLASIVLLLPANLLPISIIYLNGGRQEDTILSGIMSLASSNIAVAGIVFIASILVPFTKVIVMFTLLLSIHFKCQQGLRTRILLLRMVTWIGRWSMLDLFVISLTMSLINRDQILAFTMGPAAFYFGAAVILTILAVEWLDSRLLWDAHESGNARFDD
Test: cryo-EM structure

stoichiometry N: 6 LetB per LetA
B1: LetB (lipophilic envelope-spanning tunnel B), untagged (natural protein, E. coli, UniProt P76272 1-877, looked up)
chain: MSQETPASTTEAQIKNKRRISPFWLLPFIALMIASWLIWDSYQDRGNTVTIDFMSADGIVPGRTPVRYQGVEVGTVQDISLSDDLRKIEVKVSIKSDMKDALREETQFWLVTPKASLAGVSGLDALVGGNYIGMMPGKGKEQDHFVALDTQPKYRLDNGDLMIHLQAPDLGSLNSGSLVYFRKIPVGKVYDYAINPNKQGVVIDVLIERRFTDLVKKGSRFWNVSGVDANVSISGAKVKLESLAALVNGAIAFDSPEESKPAEAEDTFGLYEDLAHSQRGVIIKLELPSGAGLTADSTPLMYQGLEVGQLTKLDLNPGGKVTGEMTVDPSVVTLLRENTRIELRNPKLSLSDANLSALLTGKTFELVPGDGEPRKEFVVVPGEKALLHEPDVLTLTLTAPESYGIDAGQPLILHGVQVGQVIDRKLTSKGVTFTVAIEPQHRELVKGDSKFVVNSRVDVKVGLDGVEFLGASASEWINGGIRILPGDKGEMKASYPLYANLEKALENSLSDLPTTTVSLSAETLPDVQAGSVVLYRKFEVGEVITVRPRANAFDIDLHIKPEYRNLLTSNSVFWAEGGAKVQLNGSGLTVQASPLSRALKGAISFDNLSGASASQRKGDKRILYASETAARAVGGQITLHAFDAGKLAVGMPIRYLGIDIGQIQTLDLITARNEVQAKAVLYPEYVQTFARGGTRFSVVTPQISAAGVEHLDTILQPYINVEPGRGNPRRDFELQEATITDSRYLDGLSIIVEAPEAGSLGIGTPVLFRGLEVGTVTGMTLGTLSDRVMIAMRISKRYQHLVRNNSVFWLASGYSLDFGLTGGVVKTGTFNQFIRGGIAFATPPGTPLAPKAQEGKHFLLQESEPKEWREWGTALPK
